Experimental data as given in PMC4889030 (Molecular cell, 2016).
Like-named read-outs stand apart in the source and are kept apart here. Where no end group is shown, it is not given here.

Tests used:
Assay in all cases: pull-down
[1] = target: T1, full length ^FlagCRBN expressed in CRBN-KO 293FT cells (human, UniProt Q96SW2 1-442)
[2] = target: T1, full length ^FlagCRBN expressed in …; remark: listed apart in the source
[3] = target: ^FlagCRBN H357Y (human, UniProt Q96SW2 1-442, H357Y)
Chain of ^FlagCRBN H357Y (Q96SW2 whole entry H357Y): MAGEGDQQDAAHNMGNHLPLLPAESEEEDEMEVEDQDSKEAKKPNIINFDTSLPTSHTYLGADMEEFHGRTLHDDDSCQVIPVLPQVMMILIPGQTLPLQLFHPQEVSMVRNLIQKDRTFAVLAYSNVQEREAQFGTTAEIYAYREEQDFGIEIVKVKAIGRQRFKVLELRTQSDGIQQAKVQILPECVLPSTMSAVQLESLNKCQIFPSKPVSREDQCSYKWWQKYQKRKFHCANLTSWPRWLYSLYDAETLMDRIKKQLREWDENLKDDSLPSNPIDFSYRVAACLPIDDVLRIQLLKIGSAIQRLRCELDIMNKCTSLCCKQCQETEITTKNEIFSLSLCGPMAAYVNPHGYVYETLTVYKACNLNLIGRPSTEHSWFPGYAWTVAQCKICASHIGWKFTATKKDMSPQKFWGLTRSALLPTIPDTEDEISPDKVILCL

T1 sequence (Q96SW2 whole entry): as the sequence (Q96SW2 whole entry H357Y) above, with Y357H counted along it

| Binder | binding result [1] | binding result [2] | binding result [3] |
| --- | --- | --- | --- |
| ASSHLNK(Ac)GIK(Ac)QVYMSLPQ (peptide, UniProt P15104 5-22, looked up, also: biotinylated, place not given here) [biotinylated synthetic GS peptide (amino acids 5-22 of GS), di-acetylated on K11 and K14] | binds |  |  |
| ASSHLNK(Ac)GIKQVYMSLPQ (peptide, UniProt P15104 5-22, looked up, also: biotinylated, place not given here) [biotinylated synthetic GS peptide (amino acids 5-22 of GS), mono-acetylated on K11] |  | binds | binds |
| ASSHLNKGIK(Ac)QVYMSLPQ (peptide, UniProt P15104 5-22, looked up, also: biotinylated, place not given here) [biotinylated synthetic GS peptide (amino acids 5-22 of GS), mono-acetylated on K14] |  | binds |  |
